The data set concerns the molecule itself. In words: SEC; Superdex 200 10/300 GL; protein dialysed in 20 mM HEPES pH 7.5, 50 mM NaCl, 10 mM β-mercaptoethanol, 10% glycerol, about 2 mg/ml; size by comparison with a standard curve. For orientation: SEC sorts molecules by how far they enter the pores of the column.

B1: StrepII-MYRF-319:577, the N-terminal fragment from the auto-processing of StrepII-MYRF-319:708-10xHis (domain or fragment, human, UniProt Q9Y2G1-2 319-577, looked up)
chain: PSPGLLQDSDSLSGSYLDPNYQSIKWQPHQQNKWATLYDANYKELPMLTYRVDADKGFNFSVGDDAFVCQKKNHFQVTVYIGMLGEPKYVKTPEGLKPLDCFYLKLHGVKLEALNQSINIEQSQSDRSKRPFNPVTVNLPPEQVTKVTVGRLHFSETTANNMRKKGKPNPDQRYFMLVVALQAHAQNQNYTLAAQISERIIVRASNPGQFESDSDVLWQRAQVPDTVFHHGRVGINTDRPDEALVVHGNVKVMGSLMHP
notes: Myelin regulatory factor MYRF (C11orf9), human, 1111-amino-acid-long isoform; numbers count on: the 1111-amino-acid isoform (NP_037411); Cloned in pET52b between BamHI and SacI; The C-terminal 10xHis stays on the other cleavage product; also called N-terminal fragment of MYRF-319:708; source: E. coli BL21 Star (DE3) pLysS, cut product of StrepII-MYRF-319:708-10xHis, purified (Ni-NTA flow-through, …)
What is called stoichiometry N is the number of molecules, sites or subunits per partner or assembly. Consider B1, for which the “stoichiometry N” value worked out at 3.

The values are drawn from paper PMC3742443, “A Bacteriophage Tailspike Domain Promotes Self-Cleavage of a Human Membrane-Bound Transcription Factor, the Myelin Regulatory Factor MYRF” (PLoS Biology, 2013).
